Substrate in series [1]: OC[C@H]1O[C@@H](n2cnc3c(O)ncnc32)[C@H](O)[C@@H]1O
Put plainly: HPLC of nucleoside hydrolysis, Michaelis-Menten. The format is biochemical, Phaseolus vulgaris. Conditions: 50 mM Tris-HCl pH 7.5, 1 mM DTT, 40 °C, apparent Km. The source says:
(§1) HPLC of nucleoside hydrolysis, Michaelis-Menten on PvNSH2

Substrate in series [2]: O=c1[nH]c(=O)c2ncn([C@@H]3O[C@H](CO)[C@@H](O)[C@H]3O)c2[nH]1
Put plainly: HPLC of nucleoside hydrolysis, Michaelis-Menten. The format is biochemical, Phaseolus vulgaris. The note with it: 50 mM Tris-HCl pH 7.5, 1 mM DTT, 40 °C, apparent Km.
Excerpt: as §1

B1: PvNSH2 (Phaseolus vulgaris) (protein)
chain: MAADTEPKKIIIDTDPGIDDAMAIFVALQSPEIEVIGLTTIYGNVYTTLATRNALHLLEVAGRTDIPVAEGTHLTLTKGTKLRIADFVHGADGLGNQNFPPPKGKPIEESAASFLVRQAKLNPGKVTVVALGPLTNIALAIELDPEFVKNIGQIVILGGAFAVNGNVNPAAEANIFGDPDAADVVFTSGADILALGINVTHQVILTSSDREILASSNGKFAQYLHKILDVYFSYHQESYNTKGVYLHDPTVVLAAVDPSLVTCIEGIVRVQTSGITRGLTLLYNKQKRFGEIHEWSNKPTVKVAVTVDAPRVMKLVMDRLLDS
notes: no N. benthamiana NSH1 detected by MS; locus assigned by print order
In the case of B1, in series [1], the Km worked out at 210 ± 20 µM, the kcat came out at 2.91 ± 0.14 s⁻¹ and the catalytic efficiency (kcat/Km) was found to be 13700 ± 640 M⁻¹ s⁻¹. Also, in series [2], the Km came to 120 ± 20 µM, the kcat was found to be 13.2 ± 0.26 s⁻¹ and the specificity constant (kcat/Km) is 116000 ± 15200 M⁻¹ s⁻¹.

The term Km denotes the concentration of substrate that gives half-maximal velocity. Usually kcat stands for the number of substrate molecules converted per active site and unit of time at saturation. Broadly, the kcat/Km is the second-order rate constant that governs catalysis at low substrate concentration.

For the origin of these results see PMC8027947, “Nucleoside Metabolism Is Induced in Common Bean During Early Seedling Development” (Frontiers in Plant Science, 2021).
